Laboratory results reported in publication PMC5713450.

How the values were obtained:
[1] = biological target: Protein A (UniProt P02976); experiment: EIS; conditions: apparent; 2 mM ferri-/ferrocyanide; Hill h 1.14 +/- 0.15; 3' C6 spacer and thiol; immobilized on gold with MCH; BB: 100 mM NaCl, 20 mM Tris, 10 mM MgCl2, 5 mM KCl, 1 mM CaCl2, pH 7.6; MST in BBT (0.005% Tween 20) at 25 C, 2bind MST with 0.05% Tween 20; EIS in BB + 2 mM …
[2] = biological target: Protein A (cited studies) (UniProt P02976); experiment: RIFTS; conditions: aptamer immobilized on porous silicon, h 2.61 +/- 0.69, 3' amino, BB: 100 mM NaCl, 20 mM Tris, 10 mM MgCl2, 5 mM KCl, 1 mM CaCl2, pH 7.6, MST in BBT (0.005% Tween 20) at 25 C, 2bind MST with 0.05% Tween 20, EIS in BB + 2 mM …; cited from earlier work
[3] = biological target: Protein A (cited studies) (UniProt P02976); experiment: SPR; conditions: BB: 100 mM NaCl, 20 mM Tris, 10 mM MgCl2, 5 mM KCl, 1 mM CaCl2, pH 7.6, MST in BBT (0.005% Tween 20) at 25 C, 2bind MST with 0.05% Tween 20, EIS in BB + 2 mM …, cited from earlier work
[4] = biological target: Protein A (cited studies) (UniProt P02976); experiment: ELONA; conditions: BB: 100 mM NaCl, 20 mM Tris, 10 mM MgCl2, 5 mM KCl, 1 mM CaCl2, pH 7.6; MST in BBT (0.005% Tween 20) at 25 C, 2bind MST with 0.05% Tween 20; EIS in BB + 2 mM …; cited from earlier work
[5] = biological target: Protein A (UniProt P02976); experiment: MST; conditions: BB: 100 mM NaCl, 20 mM Tris, 10 mM MgCl2, 5 mM KCl, 1 mM CaCl2, pH 7.6, MST in BBT (0.005% Tween 20) at 25 C, 2bind MST with 0.05% Tween 20, EIS in BB + 2 mM …
[6] = biological target: Protein A (cited studies) (UniProt P02976); experiment: MST; conditions: 5' thiol; BB: 100 mM NaCl, 20 mM Tris, 10 mM MgCl2, 5 mM KCl, 1 mM CaCl2, pH 7.6; MST in BBT (0.005% Tween 20) at 25 C, 2bind MST with 0.05% Tween 20; EIS in BB + 2 mM …; cited from earlier work

## ATACCAGCTTATTCAATTAGCAACATGAGGGGGATAGAGGGGGTGGGTTCTCTCGGCT [PAA (PA#2/8[S1-58]), 3'-thiol on gold]
[1]
  Kd: 18.5 nM

## ATACCAGCTTATTCAATTAGCAACATGAGGGGGATAGAGGGGGTGGGTTCTCTCGGCT [PAA, 3'-amino]
[2]
  Kd: 14000 nM

## ATACCAGCTTATTCAATTAGCAACATGAGGGGGATAGAGGGGGTGGGTTCTCTCGGCT [PAA, 3'-biotin]
[3]
  Kd: 287 nM
[4]
  Kd: 11.3 nM

## ATACCAGCTTATTCAATTAGCAACATGAGGGGGATAGAGGGGGTGGGTTCTCTCGGCT [PAA, 3'-fluorescent]
[5]; BB + 0.05% Tween 20 (2bind), 3' C6 spacer, thiol
  Kd: 111 nM
[5]; BBT + 2 mM ferri-/ferrocyanide, 3' C6 spacer, thiol
  Kd: 16.4 nM
[5]; BBT, 0.005% Tween 20, no ferri-/ferrocyanide, 3' C6 spacer, thiol
  Kd: 22.4 nM

## ATACCAGCTTATTCAATTAGCAACATGAGGGGGATAGAGGGGGTGGGTTCTCTCGGCT [PAA, 5'-biotin]
[4]
  Kd: 23.7 nM

## ATACCAGCTTATTCAATTAGCAACATGAGGGGGATAGAGGGGGTGGGTTCTCTCGGCT [PAA, 5'-fluorescent]
[5]; BB + 0.05% Tween 20 (2bind), 5' thiol
  Kd: 116 nM
[6]
  Kd: 94.7 nM
[3]; 5' thiol
  Kd: 1920 nM
